Data taken from US20190153059A1 (ADEPTHERA, published 2019).
Square brackets hold non-standard residues; d marks the D form. Ends that are not written are not given here. * marks the point of attachment. Palmitoyl = CCCCCCCCCCCCCCCC(=O)*; AEEA = NCCOCCOCC(=O)O

Assays:
CLR/RAMP2 receptor = CLR/RAMP2 receptor (UniProt Q16602 23-461; O60895 43-175, limits assumed); experiment: cell-based or functional assay
CLR/RAMP1 receptor = CLR/RAMP1 receptor (UniProt Q16602 23-461; O60894 27-148, limits assumed); experiment: cell-based or functional assay
CLR/RAMP1 receptor, sequence (Q16602 23-461 limits assumed, chain 1 of 2): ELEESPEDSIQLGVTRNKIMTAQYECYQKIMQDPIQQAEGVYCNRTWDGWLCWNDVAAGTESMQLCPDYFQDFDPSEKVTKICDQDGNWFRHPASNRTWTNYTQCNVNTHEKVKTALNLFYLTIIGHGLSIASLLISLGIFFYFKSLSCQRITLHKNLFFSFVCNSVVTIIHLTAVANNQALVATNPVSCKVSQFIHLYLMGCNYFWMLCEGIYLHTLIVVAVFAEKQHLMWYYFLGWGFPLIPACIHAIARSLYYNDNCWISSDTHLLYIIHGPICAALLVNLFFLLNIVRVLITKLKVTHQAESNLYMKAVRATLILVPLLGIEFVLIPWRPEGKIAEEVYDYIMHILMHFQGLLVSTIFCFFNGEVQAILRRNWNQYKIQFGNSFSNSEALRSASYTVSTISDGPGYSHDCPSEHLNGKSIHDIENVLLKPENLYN
CLR/RAMP1 receptor, sequence (O60894 27-148 limits assumed, chain 2 of 2): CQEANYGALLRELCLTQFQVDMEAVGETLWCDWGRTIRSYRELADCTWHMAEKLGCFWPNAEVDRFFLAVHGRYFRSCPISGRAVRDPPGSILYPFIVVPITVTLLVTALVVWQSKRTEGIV

CLR/RAMP2 receptor, sequence (Q16602 23-461 limits assumed, chain 1 of 2): as the sequence (Q16602 23-461 limits assumed, chain 1 of 2) above
CLR/RAMP2 receptor, sequence (O60895 43-175 limits assumed, chain 2 of 2): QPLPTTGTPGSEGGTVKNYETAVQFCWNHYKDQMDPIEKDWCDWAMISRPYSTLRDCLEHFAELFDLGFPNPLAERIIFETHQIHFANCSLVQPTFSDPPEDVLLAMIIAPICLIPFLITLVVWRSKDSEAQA

Row | Binder | CLR/RAMP2 EC50 (CLR/RAMP2 receptor) [nM] | CLR/RAMP2 Max Activity (CLR/RAMP2 receptor) | CLR/RAMP1 Max Activity (CLR/RAMP1 receptor) | CLR/RAMP1 EC50 (CLR/RAMP1 receptor) [nM]
1 | TKKTLRTGCRFGTCTVQKLAHQIYQFTDKDKDNVAPVDPSSPHSY (miniPEG- at N-terminus; K(Pal) at position 2 (miniPEG-TK(Pal)K...); -NH2) [SEQ ID NO: 42] | 0.2 | – | – | –
2 | [AEEA]K(Palmitoyl)GCRFGTCTVQKLAHQIYQFTDKDKDSAPVDPSSPHSY-NH2 (ends and bridges not checked) [SEQ ID NO: 46] | 0.5 | 104 % of positive control | – | –
3 | Ac-FGCRFGTCTVQKLAHQIYQFTDKDKDNVAPRSKISPQGY-NH2 (ends and bridges not checked) [SEQ ID NO: 53 (human ADM)] | – | 102 % of positive control | 69 % of positive control | –
4 | Ac-VGCRFGTCTVQKLAHQIYQFTDKDKDNSAPVDPSSPHSY-NH2 (ends and bridges not checked) [SEQ ID NO: 56] | 17 | – | – | 224
5 | Palmitoyl-KGCRFGTCTVQKLAHQIYQFTDKDKDNSAPVDPSSPHSY-NH2 (cysteine pairing not given here) [SEQ ID NO: 30] | 0.6 | – | – | 0.4
6 | Palmitoyl-KGCRFGTCTVQKLAHQIYQFTDKDKDNVAPRSKSSPHSY-NH2 (ends and bridges not checked) [SEQ ID NO: 63] | 7 | – | – | 180
7 | KGCRFGTCTVQKLAHQIYQFTDKDVAPRSKISPQGY (miniPEG- at N-terminus; K(PAL); (D-Ser) in ...VAPR(D-Ser)KISPQGY; -NH2) [SEQ ID NO: 213] | 0.7 | 107 % of positive control | – | –
8 | KGCRFGTCTVQKLAHQIYQFTDKDVAPRSKISPQGY (miniPEG- at N-terminus; K(PAL); (D-Gln) in ...KISP(D-Gln)GY; -NH2) [SEQ ID NO: 214] | 0.4 | 99 % of positive control | – | –
9 | KGCRFGTCTVQKLAHQIYQFTDKDKDNVAPRSKISPQGY (Ace-PEG3- at N-terminus; K(Hexadecanoyl-isoGlu); -NH2) [SEQ ID NO: 151] | – | – | – | 0.5
10 | KGCRFGTCTVQKLAHQIYQFTDKDKDNVAPRSKISPQGY (Ace-PEG3- at N-terminus; K([19-carboxy-nonadecanoyl]-PEG3-isoGlu); -NH2) [SEQ ID NO: 156] | – | – | 88 % of positive control | 0.8
11 | KGCRFGTCTVQKLAHQIYQFTDKDKDNVAPRSKISPQGY (Ace-PEG3- at N-terminus; K([19-carboxy-nonadecanoyl]-isoGlu); -NH2) [SEQ ID NO: 155] | – | – | – | 0.6
12 | [AEEA]K(Palmitoyl)GCRFGTCTVQKLAHLWQLMGPAGRQDSAPVDPSSPHSY-NH2 (not fully specified; ends and bridges not checked) [SEQ ID NO: 62] | – | – | 2 % of positive control | –
13 | Ac-KGCRFGTCTVQKLAHQIYQFTDKDKDNSAPVDPSSPHSY-NH2 (ends and bridges not checked) [SEQ ID NO: 59] | 18 | – | – | 31
14 | Ac-VGCRFGTCTVQKLAHQIYQFTPAGRQDSAPVDPSSPHSY-NH2 (ends and bridges not checked) [SEQ ID NO: 57] | 149 | – | – | 909
15 | [AEEA]K(Palmitoyl)GCRFGTCTVQKLAHQIYQFTDKDKQDSAPVDPSSPHSY-NH2 (ends and bridges not checked) [SEQ ID NO: 51] | 0.3 | – | 65 % of positive control | 0.2
16 | KGCRFGTCTVQKLAHQIYQFTDKDKSAPVDPSSPHSY (miniPEG- at N-terminus; K(PAL); -NH2) [SEQ ID NO: 47] | 0.4 | 64 % of positive control | – | –
17 | Ac-KGCRFGTCTVQKLAHQIYQFTDKDKDNVAPVDPSSPHSY-NH2 (ends and bridges not checked) [SEQ ID NO: 60] | 3 | – | – | 16
